According to patent US20140220159A1:

Columns and labels:
[1] = target: HPV16 E6 (human papillomavirus type 16 (HPV16)) (UniProt P03126); assay: cell-based or functional assay
MDM2 = MDM2 (UniProt Q00987); assay: cell-based or functional assay
MDM2, sequence (Q00987 whole entry): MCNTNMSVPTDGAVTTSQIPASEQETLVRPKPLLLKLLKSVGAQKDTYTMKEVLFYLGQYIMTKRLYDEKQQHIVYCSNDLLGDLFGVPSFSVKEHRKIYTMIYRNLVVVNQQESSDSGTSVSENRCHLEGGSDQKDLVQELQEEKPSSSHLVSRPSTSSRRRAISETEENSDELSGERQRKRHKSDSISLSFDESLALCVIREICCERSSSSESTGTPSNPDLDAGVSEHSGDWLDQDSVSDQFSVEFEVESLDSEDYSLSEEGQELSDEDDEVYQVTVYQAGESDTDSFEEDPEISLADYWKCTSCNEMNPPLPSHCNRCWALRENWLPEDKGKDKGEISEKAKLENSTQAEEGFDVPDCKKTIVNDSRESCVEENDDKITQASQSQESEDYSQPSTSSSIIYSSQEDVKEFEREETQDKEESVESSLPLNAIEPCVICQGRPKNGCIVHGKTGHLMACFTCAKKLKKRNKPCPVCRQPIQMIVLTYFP

exogenous CH1 domain of p300 (pcDNA3.1/CH1), sequence (Q09472 whole entry, the tested form may be a part): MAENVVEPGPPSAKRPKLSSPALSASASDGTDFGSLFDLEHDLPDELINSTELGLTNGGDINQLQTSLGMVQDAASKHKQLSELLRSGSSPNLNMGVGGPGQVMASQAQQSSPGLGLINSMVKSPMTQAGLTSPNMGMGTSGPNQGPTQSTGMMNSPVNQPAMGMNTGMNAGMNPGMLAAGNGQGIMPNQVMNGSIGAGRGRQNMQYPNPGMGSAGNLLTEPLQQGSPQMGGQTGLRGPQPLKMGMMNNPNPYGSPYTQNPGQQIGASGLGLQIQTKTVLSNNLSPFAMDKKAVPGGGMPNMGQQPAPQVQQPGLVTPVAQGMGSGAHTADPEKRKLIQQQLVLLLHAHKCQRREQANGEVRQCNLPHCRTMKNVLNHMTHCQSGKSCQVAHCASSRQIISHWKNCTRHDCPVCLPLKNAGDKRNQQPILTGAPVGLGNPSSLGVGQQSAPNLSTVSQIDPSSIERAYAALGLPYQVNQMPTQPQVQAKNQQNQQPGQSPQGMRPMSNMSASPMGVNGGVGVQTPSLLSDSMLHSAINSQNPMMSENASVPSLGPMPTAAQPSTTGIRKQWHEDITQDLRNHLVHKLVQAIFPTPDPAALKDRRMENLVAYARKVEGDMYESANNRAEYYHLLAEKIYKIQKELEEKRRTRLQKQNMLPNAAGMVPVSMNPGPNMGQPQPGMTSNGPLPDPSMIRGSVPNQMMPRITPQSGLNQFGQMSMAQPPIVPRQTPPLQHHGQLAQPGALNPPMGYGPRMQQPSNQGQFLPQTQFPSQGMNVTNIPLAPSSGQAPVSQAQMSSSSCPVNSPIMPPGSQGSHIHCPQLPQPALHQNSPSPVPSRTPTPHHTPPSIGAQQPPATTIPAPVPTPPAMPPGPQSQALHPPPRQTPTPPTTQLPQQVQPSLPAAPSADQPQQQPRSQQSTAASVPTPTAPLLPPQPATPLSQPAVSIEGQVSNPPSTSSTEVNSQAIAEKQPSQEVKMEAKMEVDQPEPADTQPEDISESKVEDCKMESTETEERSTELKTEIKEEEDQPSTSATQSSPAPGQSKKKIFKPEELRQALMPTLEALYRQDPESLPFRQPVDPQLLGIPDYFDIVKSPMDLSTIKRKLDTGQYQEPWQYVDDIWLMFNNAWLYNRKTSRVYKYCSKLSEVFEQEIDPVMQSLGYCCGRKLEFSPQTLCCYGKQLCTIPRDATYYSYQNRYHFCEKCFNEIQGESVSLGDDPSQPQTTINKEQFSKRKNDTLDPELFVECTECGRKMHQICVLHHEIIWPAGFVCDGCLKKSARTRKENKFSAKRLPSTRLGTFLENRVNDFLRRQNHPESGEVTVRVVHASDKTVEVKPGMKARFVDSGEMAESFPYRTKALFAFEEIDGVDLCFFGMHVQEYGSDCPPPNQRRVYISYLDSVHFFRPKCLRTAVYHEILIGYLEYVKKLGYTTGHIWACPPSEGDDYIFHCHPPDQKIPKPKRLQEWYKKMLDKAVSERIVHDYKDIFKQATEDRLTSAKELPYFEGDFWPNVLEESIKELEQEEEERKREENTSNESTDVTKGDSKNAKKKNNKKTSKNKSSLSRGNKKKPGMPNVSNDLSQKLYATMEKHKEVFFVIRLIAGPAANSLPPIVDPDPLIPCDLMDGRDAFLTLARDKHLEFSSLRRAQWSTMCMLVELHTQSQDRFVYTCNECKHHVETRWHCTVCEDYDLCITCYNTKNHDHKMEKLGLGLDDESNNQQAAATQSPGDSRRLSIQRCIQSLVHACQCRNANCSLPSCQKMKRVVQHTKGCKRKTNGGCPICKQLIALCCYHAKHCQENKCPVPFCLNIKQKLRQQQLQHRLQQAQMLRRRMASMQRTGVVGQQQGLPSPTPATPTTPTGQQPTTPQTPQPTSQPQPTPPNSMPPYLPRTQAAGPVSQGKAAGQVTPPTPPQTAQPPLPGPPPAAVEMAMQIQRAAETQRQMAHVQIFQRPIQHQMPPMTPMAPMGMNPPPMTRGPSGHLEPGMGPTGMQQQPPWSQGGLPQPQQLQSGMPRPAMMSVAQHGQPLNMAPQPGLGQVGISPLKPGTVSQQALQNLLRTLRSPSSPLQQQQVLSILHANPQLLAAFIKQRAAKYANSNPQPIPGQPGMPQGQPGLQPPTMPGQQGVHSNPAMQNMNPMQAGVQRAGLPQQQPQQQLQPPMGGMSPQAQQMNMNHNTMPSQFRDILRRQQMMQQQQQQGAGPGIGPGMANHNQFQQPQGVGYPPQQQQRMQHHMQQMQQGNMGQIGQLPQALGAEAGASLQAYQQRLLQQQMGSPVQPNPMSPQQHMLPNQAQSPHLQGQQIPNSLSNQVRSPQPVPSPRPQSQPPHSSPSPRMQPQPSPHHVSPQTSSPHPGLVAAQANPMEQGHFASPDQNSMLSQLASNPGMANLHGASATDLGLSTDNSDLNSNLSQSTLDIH
HPV16 E6 (human papillomavirus type 16 (HPV16)), sequence (P03126 whole entry): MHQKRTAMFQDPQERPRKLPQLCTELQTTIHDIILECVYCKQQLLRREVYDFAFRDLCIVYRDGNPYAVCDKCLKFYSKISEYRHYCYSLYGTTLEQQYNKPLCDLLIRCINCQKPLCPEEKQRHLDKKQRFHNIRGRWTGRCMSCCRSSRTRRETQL

exogenous CH1 domain of p300 (pcDNA3.1/CH1) (from UniProt Q09472 332-417)
p53 transcription activity (luciferase reporter), UMSCC47/CH1 cells [1]: 85%
p53 transcription activity (luciferase reporter), UPCI:SCC090/CH1 cells [1]: 50%
p53 transcription activity (luciferase reporter), UMSCC74A/CH1 compared to UMSCC74A/empty cells (MDM2): 68%
